Experimental data reported in patent US20240366718A1 (IMMUNOS THERAPEUTICS, published 2024).
Values belong to the binder of their own block, whether it stands above or below them.

B1: LILRB2 (c-terminally biotinylated, BPS Bioscience #100335) (receptor, human, UniProt Q8N423 22-460, looked up)
chain: QTGTIPKPTLWAEPDSVITQGSPVTLSCQGSLEAQEYRLYREKKSASWITRIRPELVKNGQFHIPSITWEHTGRYGCQYYSRARWSELSDPLVLVMTGAYPKPTLSAQPSPVVTSGGRVTLQCESQVAFGGFILCKEGEDEHPQCLNSQPHARGSSRAIFSVGPVSPNRRWSHRCYGYDLNSPYVWSSPSDLLELLVPGVSKKPSLSVQPGPVMAPGESLTLQCVSDVGYDRFVLYKEGERDLRQLPGRQPQAGLSQANFTLGPVSRSYGGQYRCYGAHNLSSECSAPSDPLDILITGQIRGTPFISVQPGPTVASGENVTLLCQSWRQFHTFLLTKAGAADAPLRLRSIHEYPKYQAEFPMSPVTSAHAGTYRCYGSLNSDPYLLSHPSEPLELVVSGPSMGSSPPPTGPISTPGPEDQPLTPTGSDPQSGLGRHLGV
modifications: C-terminal biotin
notes: Bought biotinylated protein; also called human LILRB2; biotinylated LILRB2

How the values were obtained:
[1] = biological target: T1, ANGPTL2 (R&D systems, 9795-AN) (UniProt Q9UKU9 23-493, limits assumed); assay: BLI, biotinylated LILRB2 sensors, ANGPTL2 titrated with or without prior incubation of the sensor with iosH2
T1 construct: also called ANGTPL2
T1 sequence (looked up): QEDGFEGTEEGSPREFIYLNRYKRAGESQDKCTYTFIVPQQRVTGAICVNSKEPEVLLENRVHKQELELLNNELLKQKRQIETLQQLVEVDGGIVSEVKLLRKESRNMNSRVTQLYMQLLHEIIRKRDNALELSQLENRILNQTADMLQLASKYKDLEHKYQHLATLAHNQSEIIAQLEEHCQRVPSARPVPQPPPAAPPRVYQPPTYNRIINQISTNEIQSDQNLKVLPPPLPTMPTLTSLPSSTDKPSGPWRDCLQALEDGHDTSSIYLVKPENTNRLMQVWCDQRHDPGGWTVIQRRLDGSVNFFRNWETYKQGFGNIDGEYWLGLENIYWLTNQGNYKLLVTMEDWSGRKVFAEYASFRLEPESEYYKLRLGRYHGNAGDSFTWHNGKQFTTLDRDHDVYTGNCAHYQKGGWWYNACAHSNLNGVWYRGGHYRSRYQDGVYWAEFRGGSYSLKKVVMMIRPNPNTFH

[2] = biological target: B1; assay: BLI, biotinylated LILRB2 sensors, ANGPTL7 titrated with or without prior incubation of the sensor with iosH2
[3] = biological target: T2, HLA-B57(A46E/V97R).β2m (HLA-B57 A46E/V97R IgG4 fusion protein associated with β2m) (human; homo sapiens); assay: BLI
T2 construct: Complex secreted from CHO cells co-transfected with the fusion protein and β2m; also called iosH2; IosH2

Binder: B1
binding result [1]: binds

binding result [2]: binds
B2: ANGPTL7 (R&D systems, 914-AN) (ligand, UniProt O43827 27-346, looked up)
chain: QKLSKHKTPAQPQLKAANCCEEVKELKAQVANLSSLLSELNKKQERDWVSVVMQVMELESNSKRMESRLTDAESKYSEMNNQIDIMQLQAAQTVTQTSADAIYDCSSLYQKNYRISGVYKLPPDDFLGSPELEVFCDMETSGGGWTIIQRRKSGLVSFYRDWKQYKQGFGSIRGDFWLGNEHIHRLSRQPTRLRVEMEDWEGNLRYAEYSHFVLGNELNSYRLFLGNYTGNVGNDALQYHNNTAFSTKDKDNDNCLDKCAQLRKGGYWYNCCTDSNLNGVYYRLGEHNKHLDGITWYGWHGSTYSLKRVEMKIRPEDFKP

binding result [3]: binds
B3: human LILRB1 (receptor, UniProt Q8NHL6 24-458, looked up)
chain: GHLPKPTLWAEPGSVITQGSPVTLRCQGGQETQEYRLYREKKTALWITRIPQELVKKGQFPIPSITWEHAGRYRCYYGSDTAGRSESSDPLELVVTGAYIKPTLSAQPSPVVNSGGNVILQCDSQVAFDGFSLCKEGEDEHPQCLNSQPHARGSSRAIFSVGPVSPSRRWWYRCYAYDSNSPYEWSLPSDLLELLVLGVSKKPSLSVQPGPIVAPEETLTLQCGSDAGYNRFVLYKDGERDFLQLAGAQPQAGLSQANFTLGPVSRSYGGQYRCYGAHNLSSEWSAPSDPLDILIAGQFYDRVSLSVQPGPTVASGENVTLLCQSQGWMQTFLLTKEGAADDPWRLRSTYQSQKYQAEFPMGPVTSAHAGTYRCYGSQSSKPYLLTHPSDPLELVVSGPSGGPSSPTTGPTSTSGPEDQPLTPTGSDPQSGLGRH
